Source: patent EP2402371A1

Target: extracellular domain of human GPVI (human) (UniProt Q9HCN6)
Experiment: SPR (Biacore 3000), human GPVI immobilised by amine coupling, Fab as analyte

Kd | koff | kon | Binder
0.4 nM | 4e-05 s⁻¹ | 111000 M⁻¹ s⁻¹ | humanized anti-GPVI Fab VL1/VH1 (Fab, V domains shown) VH: QVQLQESGPGLVAPSQSLSITCTVSGFSLTGYGVNWVRQPPSRGLEWLGMIWGDGSTDYQSTLKSRLSISKDTSKSQVFLKMNSLTTDDTARYYCARDLPMDYWGQGTSVTVSS VL: DIQMTQSPSSLSASVGGRVTITCKASQDINKYIAWYQHKPGKGPSLLIHYTSTLQPGVPSRFSGSGSGRDYSFSISNLQPEDIATYYCLQYANLLTFGGGTKLEIKR
0.4 nM | 3e-05 s⁻¹ | 81000 M⁻¹ s⁻¹ | humanized anti-GPVI Fab VL1/VH5 (Fab, V domains shown) VH: QVQLQESGPGLVAPSQSLSITCTVSGFSLTGYGVNWVRQPPSRGLEWLGMIWGDGSTDYQSTLKSRLSISKDNSKSQVFLKMNSLTTDDTARYYCARDLPMDEWGQGTSVTVSS VL: DIQMTQSPSSLSASVGGRVTITCKASQDINKYIAWYQHKPGKGPSLLIHYTSTLQPGVPSRFSGSGSGRDYSFSISNLQPEDIATYYCLQYANLLTFGGGTKLEIKR
0.1 nM | 2e-05 s⁻¹ | 148000 M⁻¹ s⁻¹ | humanized anti-GPVI Fab VL1/VH3 (Fab, V domains shown) VH: EVQLLESGPGLVAPSGSLSITCTVSGFSLTGYGVNWVRQPPGKGLEWLGMIWGDGSTDYQSTLKSRLSISKDNSKSQVFLKMNSLRTDDTARYYCARDLPMDYWGLGTSVTVSS VL: DIQMTQSPSSLSASVGGRVTITCKASQDINKYIAWYQHKPGKGPSLLIHYTSTLQPGVPSRFSGSGSGRDYSFSISNLQPEDIATYYCLQYANLLTFGGGTKLEIKR
0.3 nM | 4e-05 s⁻¹ | 151000 M⁻¹ s⁻¹ | humanized anti-GPVI Fab VL3/VH4 (Fab, V domains shown) VH: QVQLQESGPGLVAPSQSLSITCTVSGFSLTYYGVNWVRQPPSRGLEWLGMIWGDGSTDYQSTLKSRLSISKDNSKSQVFLKMNSLTTDDTARYYCARDLPMDYWGQGTSVTVSS VL: DIQMTQSPSSLSASVGGRVTITCKASQDINKYIAWYQHKPGKGPSLLIHYTSTLQPGVPSRFSGSGSGRDYSFSISNLQPEDIATYYCLQYALLLTFGGGTKLEIKR
0.2 nM | 3e-05 s⁻¹ | 132000 M⁻¹ s⁻¹ | humanized anti-GPVI Fab VL3/VH2 (Fab, V domains shown) VH: QVQLQESGPGLVAPSQSLSITCTVSGFSLTGYGVNWVRQPPSRGLEWLGMIWGDGSTDYQSTLKSRLSISKDNSKSQVFLKMNSLTTDDTARYYCARDLPMDYWGQGTSVTVSS VL: DIQMTQSPSSLSASVGGRVTITCKASQDINKYIAWYQHKPGKGPSLLIHYTSTLQPGVPSRFSGSGSGRDYSFSISNLQPEDIATYYCLQYALLLTFGGGTKLEIKR
0.2 nM | 3e-05 s⁻¹ | 113000 M⁻¹ s⁻¹ | humanized anti-GPVI Fab VL1/VH2 (Fab, V domains shown) VH: QVQLQESGPGLVAPSQSLSITCTVSGFSLTGYGVNWVRQPPSRGLEWLGMIWGDGSTDYQSTLKSRLSISKDNSKSQVFLKMNSLTTDDTARYYCARDLPMDYWGQGTSVTVSS VL: DIQMTQSPSSLSASVGGRVTITCKASQDINKYIAWYQHKPGKGPSLLIHYTSTLQPGVPSRFSGSGSGRDYSFSISNLQPEDIATYYCLQYANLLTFGGGTKLEIKR
0.2 nM | 2e-05 s⁻¹ | 124000 M⁻¹ s⁻¹ | humanized anti-GPVI Fab VL1/VH4 (Fab, V domains shown) VH: QVQLQESGPGLVAPSQSLSITCTVSGFSLTYYGVNWVRQPPSRGLEWLGMIWGDGSTDYQSTLKSRLSISKDNSKSQVFLKMNSLTTDDTARYYCARDLPMDYWGQGTSVTVSS VL: DIQMTQSPSSLSASVGGRVTITCKASQDINKYIAWYQHKPGKGPSLLIHYTSTLQPGVPSRFSGSGSGRDYSFSISNLQPEDIATYYCLQYANLLTFGGGTKLEIKR
0.3 nM | 3e-05 s⁻¹ | 108000 M⁻¹ s⁻¹ | humanized anti-GPVI Fab VL2/VH2 (Fab, V domains shown) VH: QVQLQESGPGLVAPSQSLSITCTVSGFSLTGYGVNWVRQPPSRGLEWLGMIWGDGSTDYQSTLKSRLSISKDNSKSQVFLKMNSLTTDDTARYYCARDLPMDYWGQGTSVTVSS VL: DIQMTQSPSSLSASVGGRVTITCKASQDINKYIAWYQHKPGKGPSLLIHYTSTLQPGVPSRFSGSGSGRDYSFSISNLQPEDIATYYCLQYAHLLTFGGGTKLEIKR
